Experiments:
Assay in all cases: Km, Vmax and Vmax/Km of substrates for plasmin (pig)
Assay type in all cases: biochemical, Porcine (pig)
[1] = substrate: CC(=O)NCCCC[C@@H](N)C(=O)N[C@@H](Cc1ccccc1)C(=O)N[C@@H](CCCCN)C(=O)Nc1ccc(O)c(C(=O)O)c1; details: other: TABLE 2, CHA substrates, plasmin (pig), 2,6-xylenol 615 nm
Source text: (§1) The substrates produced by the above examples were used in the measurement of plasmin as follows: The principle of this measurement comprises quantitatively analyzing the decomposition product p-nitroaniline or 3-carboxy-4-hydroxyaniline produced by the enzymatic hydrolysis, by measuring the absorbance (O.D.) directly at 405 nm in the case of p-nitroaniline and, in the case of the 3-carboxy-4-hydroxyaniline at 615 nm after condensing it with 2,6-xylenol in the presence of an oxidant to develop a color.
(§2) For the measurements of these constants, the following method is adopted:
(§3) The enzyme and the substrate are mixed in a buffer solution and subjected to the hydrolysis for 30 seconds. The concentration of the substrate [S] is changed and the enzyme concentration is maintained constant. By measuring the absorbance (O.D.), the initial velocity of the hydrolysis can be determined. Where 1/V is plotted as a function of 1/[S], there is obtained a Lineweaver and Burk's linea from which graph the Vmax and Km can be determined.

[2] = substrate: CC(C)OC(=O)C[C@@H](N)C(=O)N[C@@H](Cc1ccccc1)C(=O)N[C@@H](CCCCN)C(=O)Nc1ccc(O)c(C(=O)O)c1; details: other: TABLE 2, CHA substrates, plasmin (pig), 2,6-xylenol 615 nm
Source text: as §1, §2, §3

[3] = substrate: CC(C)[C@@H](N)C(=O)N[C@@H](Cc1ccccc1)C(=O)N[C@@H](CCCCN)C(=O)Nc1ccc(O)c(C(=O)O)c1; details: other: TABLE 2, CHA substrates, plasmin (pig), 2,6-xylenol 615 nm
Source text: as §1, §2, §3

[4] = substrate: CCCC(=O)NCCCC[C@@H](N)C(=O)N[C@@H](Cc1ccccc1)C(=O)N[C@@H](CCCCN)C(=O)Nc1ccc(O)c(C(=O)O)c1; details: other: TABLE 2, CHA substrates, plasmin (pig), 2,6-xylenol 615 nm
Source text: as §1, §2, §3

[5] = substrate: CS(=O)(=O)NCCCC[C@@H](N)C(=O)N[C@@H](Cc1ccccc1)C(=O)N[C@@H](CCCCN)C(=O)Nc1ccc(O)c(C(=O)O)c1; details: other: TABLE 2, CHA substrates, plasmin (pig), 2,6-xylenol 615 nm
Source text: as §1, §2, §3

[6] = substrate: Cc1ccc(C(=O)NCCCC[C@@H](N)C(=O)N[C@@H](Cc2ccccc2)C(=O)N[C@@H](CCCCN)C(=O)Nc2ccc(O)c(C(=O)O)c2)cc1; details: other: TABLE 2, CHA substrates, plasmin (pig), 2,6-xylenol 615 nm
Source text: as §1, §2, §3

[7] = substrate: Cc1ccc(CCOC(=O)CC[C@@H](N)C(=O)N[C@@H](Cc2ccccc2)C(=O)N[C@@H](CCCCN)C(=O)Nc2ccc([N+](=O)[O-])cc2)cc1; details: other: TABLE 1, PNA substrates, plasmin (pig), 405 nm
Source text: as §1, §2, §3

[8] = substrate: Cc1ccc(S(=O)(=O)NCCCC[C@@H](N)C(=O)N[C@@H](CC(C)C)C(=O)N[C@@H](CCCCN)C(=O)Nc2ccc(O)c(C(=O)O)c2)cc1; details: other: TABLE 2, CHA substrates, plasmin (pig), 2,6-xylenol 615 nm
Source text: as §1, §2, §3

[9] = substrate: Cc1ccc(S(=O)(=O)NCCCC[C@H](N)C(=O)N[C@@H](Cc2ccccc2)C(=O)N[C@@H](CCCCN)C(=O)Nc2ccc(O)c(C(=O)O)c2)cc1; details: other: TABLE 2, CHA substrates, plasmin (pig), 2,6-xylenol 615 nm
Source text: as §1, §2, §3

[10] = substrate: Cc1ccc(S(=O)(=O)NCCC[C@@H](N)C(=O)N[C@@H](Cc2ccccc2)C(=O)N[C@@H](CCCCN)C(=O)Nc2ccc(O)c(C(=O)O)c2)cc1; details: other: TABLE 2, CHA substrates, plasmin (pig), 2,6-xylenol 615 nm
Source text: as §1, §2, §3

[11] = substrate: Cc1ccc(S(=O)(=O)Oc2ccc(C[C@@H](N)C(=O)N[C@@H](Cc3ccccc3)C(=O)N[C@@H](CCCCN)C(=O)Nc3ccc(O)c(C(=O)O)c3)cc2)cc1; details: other: TABLE 2, CHA substrates, plasmin (pig), 2,6-xylenol 615 nm
Source text: as §1, §2, §3

[12] = substrate: NCCCC[C@@H](N)C(=O)N[C@@H](Cc1ccccc1)C(=O)N[C@@H](CCCCN)C(=O)Nc1ccc(O)c(C(=O)O)c1; details: other: TABLE 2, CHA substrates, plasmin (pig), 2,6-xylenol 615 nm
Source text: as §1, §2, §3

[13] = substrate: NCCCC[C@H](NC(=O)[C@H](Cc1ccccc1)NC(=O)[C@H](N)CC(=O)OC1CCCCC1)C(=O)Nc1ccc(O)c(C(=O)O)c1; details: other: TABLE 2, CHA substrates, plasmin (pig), 2,6-xylenol 615 nm
Source text: as §1, §2, §3

[14] = substrate: NCCCC[C@H](NC(=O)[C@H](Cc1ccccc1)NC(=O)[C@H](N)CCC(=O)NCCCc1ccccc1)C(=O)Nc1ccc([N+](=O)[O-])cc1; details: other: TABLE 1, PNA substrates, plasmin (pig), 405 nm
Source text: as §1, §2, §3

[15] = substrate: NCCCC[C@H](NC(=O)[C@H](Cc1ccccc1)NC(=O)[C@H](N)CCC(=O)NCCc1ccccc1)C(=O)Nc1ccc(O)c(C(=O)O)c1; details: other: TABLE 2, CHA substrates, plasmin (pig), 2,6-xylenol 615 nm
Source text: as §1, §2, §3

[16] = substrate: NCCCC[C@H](NC(=O)[C@H](Cc1ccccc1)NC(=O)[C@H](N)CCC(=O)NCCc1ccccc1)C(=O)Nc1ccc([N+](=O)[O-])cc1; details: other: TABLE 1, PNA substrates, plasmin (pig), 405 nm
Source text: as §1, §2, §3

[17] = substrate: NCCCC[C@H](NC(=O)[C@H](Cc1ccccc1)NC(=O)[C@H](N)CCC(=O)OC1CCCCC1)C(=O)Nc1ccc([N+](=O)[O-])cc1; details: other: TABLE 1, PNA substrates, plasmin (pig), 405 nm
Source text: as §1, §2, §3

[18] = substrate: NCCCC[C@H](NC(=O)[C@H](Cc1ccccc1)NC(=O)[C@H](N)CCC(=O)OCCc1ccccc1)C(=O)Nc1ccc([N+](=O)[O-])cc1; details: other: TABLE 1, PNA substrates, plasmin (pig), 405 nm
Source text: as §1, §2, §3

[19] = substrate: NCCCC[C@H](NC(=O)[C@H](Cc1ccccc1)NC(=O)[C@H](N)CCCCNC(=O)Cc1ccccc1)C(=O)Nc1ccc(O)c(C(=O)O)c1; details: other: TABLE 2, CHA substrates, plasmin (pig), 2,6-xylenol 615 nm
Source text: as §1, §2, §3

[20] = substrate: NCCCC[C@H](NC(=O)[C@H](Cc1ccccc1)NC(=O)[C@H](N)CCCCNC(=O)c1ccc2ccccc2c1)C(=O)Nc1ccc(O)c(C(=O)O)c1; details: other: TABLE 2, CHA substrates, plasmin (pig), 2,6-xylenol 615 nm
Source text: as §1, §2, §3

[21] = substrate: NCCCC[C@H](NC(=O)[C@H](Cc1ccccc1)NC(=O)[C@H](N)CCCCNS(=O)(=O)c1ccccc1)C(=O)Nc1ccc(O)c(C(=O)O)c1; details: other: TABLE 2, CHA substrates, plasmin (pig), 2,6-xylenol 615 nm
Source text: as §1, §2, §3

B1: plasmin (pig) (Sus scrofa) (protein)
chain: RIYLSECKTGNGKNYRGTTSKTKSGVICQKWSVSSPHIPKYSPEKFPLAGLEENYCRNPDNDEKGPWCYTTDPETRFDYCDIPECEDECMHCSGEHYEGKISKTMSGIECQSWGSQSPHAHGYLPSKFPNKNLKMNYCRNPDGEPRPWCFTTDPNKRWEFCDIPRCTTPPPTSGPTYQCLKGRGENYRGTVSVTASGHTCQRWSAQSPHKHNRTPENFPCKNLEENYCRNPDGETAPWCYTTDSEVRWDYCKIPSCGSSTTSTEYLDAPVPPEQTPVAQDCYRGNGESYRGTSSTTITGRKCQSWVSMTPHRHEKTPGNFPNAGLTMNYCRNPDADKSPWCYTTDPRVRWEYCNLKKCSETEQQVTNFPAIAQVPSVEDLSEDCMFGNGKRYRGKRATTVAGVPCQEWAAQEPHRHSIFTPETNPRAGLEKNYCRNPDGDDNGPWCYTTNPQKLFDYCDVPQCVTSSFDCGKPKVEPKKCPARVVGGCVSIPHSWPWQISLRHRYGGHFCGGTLISPEWVLTAKHCLEKSSSPSSYKVILGAHEEYHLGEGVQEIDVSKLFKEPSEADIALLKLSSPAIITDKVIPACLPTPNYVVADRTACYITGWGETKGTYGAGLLKEARLPVIENKVCNRYEYLGGKVSPNELCAGHLAGGIDSCQGDSGGPLVCFEKDKYILQGVTSWGLGCALPNKPGVYVRVSRFVTWIEEIMRRN
Km [1]: 250 µM
Km [2]: 352 µM
Km [3]: 631 µM
Km [4]: 239 µM
Km [5]: 326 µM
Km [6]: 76.2 µM
Km [7]: 42.8 µM
Km [8]: 1000 µM
Km [9]: 292 µM
Km [10]: 542 µM
Km [11]: 154 µM
Km [12]: 222 µM
Km [13]: 379 µM
Km [14]: 39.3 µM
Km [15]: 397 µM
Km [16]: 27.9 µM
Km [17]: 32.2 µM
Km [18]: 31.1 µM
Km [19]: 357 µM
Km [20]: 325 µM
Km [21]: 532 µM
